Laboratory results taken from paper PMC12525521, “N-Terminal Metal-Binding Domain of Arabidopsis IBR5 Is Important for Its in Planta Functions” (International Journal of Molecular Sciences, 2025).
Substitutions are numbered along the chain they refer to. Names may count otherwise. “And” between values parts separate entries of the source, which are not always exact repeats. Equal values may be shown once.

B1: SUMO-AtIBR5-p (N-terminal 6x His-SUMO tag fused to aa 48-257 of AtIBR5, only the DSP_plant_IBR5-like domain) (domain or fragment, Arabidopsis thaliana, UniProt Q84JU4 48-257, looked up)
chain: AFPSEILPEFLYLGSYDNASRSELLKTQGISRVLNTVPMCQNLYRNSFTYHGLDNEKVLQFDDAIKFLDQCEKDKARVLVHCMSGKSRSPAVVVAYLMKRKGWRLAESHQWVKQRRPSTDISPEFYQQLQEFEQGIFGSEMMSAMNINDAPTFGFGFPKIDNQAQAPVFNNAPTSSIFSSPASSIPPQEFTFGATPPKPTTGGDIAMDGS
notes: One glycine residue stands as a linker between the 6x His-SUMO tag and the AtIBR5 stretch; also called N-terminally truncated AtIBR5; source: E. coli BL21 HiControl, purified (Ni-NTA, SEC); not shown: His6, N-terminal, kept; SUMO, N-terminal, kept
B2: SUMO-AtIBR5 (N-terminal 6X His-tagged SUMO fused to the 257-amino acid-long Arabidopsis thaliana indole-3-butyric acid response 5) (enzyme, UniProt Q84JU4 1-257, looked up)
chain: MRKRERENPCSICGHYHKYEEGEVCGVCGHCMPVSSDTVAPQQVHVSAFPSEILPEFLYLGSYDNASRSELLKTQGISRVLNTVPMCQNLYRNSFTYHGLDNEKVLQFDDAIKFLDQCEKDKARVLVHCMSGKSRSPAVVVAYLMKRKGWRLAESHQWVKQRRPSTDISPEFYQQLQEFEQGIFGSEMMSAMNINDAPTFGFGFPKIDNQAQAPVFNNAPTSSIFSSPASSIPPQEFTFGATPPKPTTGGDIAMDGS
notes: AtIBR5, dual-specificity phosphatase, Arabidopsis thaliana, UniProt Q84JU4, AT2G04550; One glycine residue (codon GGU) stands as a linker between the 6X His-SUMO tag and AtIBR5; Cloned with the Expresso T7 SUMO system (pETite N-His SUMO Kan vector); Expected monomer about 42 kDa; also called SUMO-AtIBR5 wild-type protein; source: E. coli BL21 HiControl, purified (Ni-NTA, SEC); not shown: His6, …
B3: SUMO-AtIBR5-q (quadruple mutant of SUMO-AtIBR5, all four conserved cysteine residues substituted with glycine) (enzyme, Arabidopsis thaliana, UniProt Q84JU4 1-257, looked up)
chain: B2 chain with C10G, C13G, C25G, C28G
notes: One glycine residue stands as a linker between the 6x His-SUMO tag and AtIBR5; also called quadruple AtIBR5 mutant; C10G C13G C25G C28G; source: E. coli BL21 HiControl, purified (Ni-NTA, SEC); not shown: His6, N-terminal, kept; SUMO, N-terminal, kept

Molecular target: the molecule itself
Assay: SEC; FPLC on HiPrep 26/60 Sephacryl S-300 HR after Ni-NTA purification; 100 mM Tris-HCl pH 8.0, 150 mM NaCl; sizes estimated from a standard curve with the Bio-Rad Gel Filtration Standard; His-SUMO tag kept

Protein	stoichiometry N
B1	2 and 4
B2	4 and 2
B3	2 and 4
